Measurements taken from patent US20210017569A1, “Ligase Screening Assay” (UNIVERSITY OF DUNDEE, priority 2018, published 2021).

Molecular target: T1, GST-MYCBP2cat (Homo sapiens, UniProt O75592)
T1 construct: GST-tagged MYCBP2cat (Ser4378-Phe4640), wt and mutants, were expressed at 16° C. overnight; made in house; host or cells: E. coli BL21-DE3
T1 sequence (O75592 4416-4678 limits assumed): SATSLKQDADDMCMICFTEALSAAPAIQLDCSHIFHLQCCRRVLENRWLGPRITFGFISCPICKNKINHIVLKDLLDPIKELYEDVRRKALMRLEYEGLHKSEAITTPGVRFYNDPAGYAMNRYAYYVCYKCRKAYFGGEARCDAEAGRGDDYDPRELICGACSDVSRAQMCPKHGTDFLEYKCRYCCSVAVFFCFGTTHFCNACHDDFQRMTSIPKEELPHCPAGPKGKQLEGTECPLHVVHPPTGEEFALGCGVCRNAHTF
Assay: Multiple turnover E2 discharge panel (threonine discharge)
Type: biochemical
Details: 17 E2s tested
Procedure: E2s were screened for threonine discharge activity with GST-MYCBP2cat as described for the amino acid panel. E2s were also incubated in the presence of threonine but in the absence of GST-MYCBP2cat. These samples provided a reference to distinguish between intrinsic E2˜Ub instability and E3-dependent discharge.

B1: UBE2E1: E2 conjugating enzyme (protein, UniProt P51965 2-193, looked up)
Ubiquitin-conjugating enzyme …: SDDDSRASTSSSSSSSSNQQTEKETNTPKKKESKVSMSKNSKLLSTSAKRIQKELADITLDPPPNCSAGPKGDNIYEWRSTILGPPGSVYEGGVFFLDITFTPEYPFKPPKVTFRTRIYHCNINSQGVICLDILKDNWSPALTISKVLLSICSLLTDCNPADPLVGSIATQYMTNRAEHDRMARQWTKRYAT
In the case of B1, the “E2 partner activity with MYCBP2cat” value is reported as “robust activity”.
